US20230125550A1 (ARCELLX, published 2023)

T1: recombinant human CD123-Fc (human, UniProt P26951 19-305)
T1 construct: not shown: Fc part of CD123-Fc
T1 sequence: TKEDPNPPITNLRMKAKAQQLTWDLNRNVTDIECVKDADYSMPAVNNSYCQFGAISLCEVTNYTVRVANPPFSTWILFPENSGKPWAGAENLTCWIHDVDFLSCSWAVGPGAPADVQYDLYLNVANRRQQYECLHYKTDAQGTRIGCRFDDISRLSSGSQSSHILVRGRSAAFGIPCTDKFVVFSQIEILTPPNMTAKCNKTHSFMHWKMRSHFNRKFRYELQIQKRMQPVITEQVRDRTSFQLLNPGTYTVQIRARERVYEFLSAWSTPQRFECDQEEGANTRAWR


biological target: T1, recombinant human CD123-Fc; experiment: phage ELISA, captured CD123-Fc
Method in brief: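 Phage from BCMA panning colonies were rescued with VCSM13 helper phage and diluted 5× in blocking buffer. Plates coated with anti-human IgG1-Fc captured 5 nM target-Fc or IgG1-Fc, and binding was detected with HRP anti-M13. Ratio = A450 target/A450 IgG1-Fc, averaged over the clone's wells.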

Binder	ELISA_avg [ratio A450 target/IgG1-Fc]
SEQ ID NO: 586 (designed binder, D domain, on phage) MGSWHEFEKRLYAIEDRLIALGGSEAELAWFEDSIAWFEWDLQMYKGKGNPEVEALNEEADAIYQELDAYRHN	3.6
SEQ ID NO: 581 (designed binder, D domain, on phage) MGSWYEFSSRLNAIDDRLWALGGSEAELAYFETDIADFESLLQWYKGKGNPEVEALLNEADAIDYELYAYRHN	3.8
SEQ ID NO: 589 (designed binder, D domain, on phage) MGSWEEFEDRLFAIDSRLWALGGSEAELAEFENIIASFEEVLQEYKGKGNPEVEALSVEAFAIDRELGAYRHN	3.7
SEQ ID NO: 595 (designed binder, D domain, on phage) MGSWTEFDERLDAIDWRLEALGGSEAELAWFEGDIALFEQYLQVYKGKGNPEVEALMEEADAIKAELDAYRHN	4.5
SEQ ID NO: 591 (designed binder, D domain, on phage) MGSWVEFDNRLFAIDERLWALGGSEAELAWFEEEIASFEDNLQKYKGKGNPEVEALQLEAFAIMEELDAYRHN	3.3
SEQ ID NO: 597 (designed binder, D domain, on phage) MGSWWEFDSRLDAIDFRLWALGGSEAELAWFEVEIADFEDWLQLYKGKGNPEVEALWHEADAIVTELYAYRHN	3.2
SEQ ID NO: 582 (designed binder, D domain, on phage) MGSWFEFEYRLDAIIDRLFALGGSEAELAEFESMIANFEYSLQEYKGKGNPEVEALYFEADAIVDELTAYRHN	4
SEQ ID NO: 584 (designed binder, D domain, on phage) MGSWHEFEERLMAIEDRLWALGGSEAELAEFEQWIALFEYDLQEYKGKGNPEVEALGMEAFAINNELSAYRHN	5.8
SEQ ID NO: 587 (designed binder, D domain, on phage) MGSWIEFEDRLDAITDRLWALGGSEAELAEFEHQIAFFEEDLQWYKGKGNPEVEALHMEAEAIMEELGAYRHN	9.5
SEQ ID NO: 592 (designed binder, D domain, on phage) MGSWFEFDDRLEAIFDRLWALGGSEAELAMFEFAIAEFEDALQEYKGKGNPEVEALYEEAVAIDEELYAYRHN	4.1
SEQ ID NO: 594 (designed binder, D domain, on phage) MGSWVEFDSRLAAIDYRLEALGGSEAELAWFEYTIANFEHTLQMYKGKGNPEVEALVYEAHAIATELQAYRHN	3.4
SEQ ID NO: 596 (designed binder, D domain, on phage) MGSWIEFDERLDAIDFRLWALGGSEAELAWFEGWIAEFESDLQLYKGKGNPEVEALNEEANAIFHELSAYRHN	7
SEQ ID NO: 583 (designed binder, D domain, on phage) MGSWLEFEYRLDAIYDRLFALGGSEAELAAFEQDIADFEKYLQYYKGKGNPEVEALWEEADAIMWELFAYRHN	3.1
SEQ ID NO: 585 (designed binder, D domain, on phage) MGSWYEFEERLDAIEDRLIALGGSEAELAIFEDIIAFFEQDLQYYKGKGNPEVEALEMEAEAISIELDAYRHN	4.1
SEQ ID NO: 588 (designed binder, D domain, on phage) MGSWMEFEDRLMAIVDRLWALGGSEAELADFEWNIAMFEEELQWYKGKGNPEVEALGDEAEAIEWELYAYRHN	6.8
SEQ ID NO: 593 (designed binder, D domain, on phage) MGSWFEFDARLMAINDRLWALGGSEAELAAFEYHIALFEDQLQMYKGKGNPEVEALTLEAVAINEELWAYRHN	4
SEQ ID NO: 590 (designed binder, D domain, on phage) MGSWEEFLFRLEAIQDRLWALGGSEAELAWFEYEIASFEDVLQSYKGKGNPEVEALSTEAKAIDYELFAYRHN	8.2
SEQ ID NO: 598 (designed binder, D domain, on phage) MGSWYEFDERLDAIFDRLWALGGSEAELAYFEQVIATFEKTLQRYKGKGNPEVEALDTEAKAISWELDAYRHN	3
